Experimental data as given in article doi:10.64898/2025.12.24.696337, “A Broadly Conserved Protective Epitope on the Lyme Disease Vaccine Antigen, OspA” (bioRxiv, 2025).
Numbering of substitutions follows the chain as printed.

B1: 221-5, recombinant human monoclonal IgG1 (antibody, V domains shown)
VH: EVQLVQSGAEVKKPGESLKISCKGSGYSFTSYWIGWVRQMPGKGLEWMGIIYPGDSDTRYSPSFQGQVTISADKSISTAYLQWSSLKASDTAMYYCARHLGIDYFFGMDVWGQGTTVTVSS
VL: EIVLTQSPATLSLSPGERATLSCRASQSVSSYLAWYQQKPGQAPRLLIYDASTRDTGIPARFSGSGSGTDFTLTISSLEPEDFAVYYCQHHSNWYTFGQGTKLEIK
notes: rest human IgG1 constant region; IgG1; VH unmutated from germline HV5-51, VL derived from KV3-11; also called Class I Bin 1 mAb; source: Expi293, transiently transfected with VH and VL plasmids, purified (Protein A)
B2: 221-11, recombinant human monoclonal IgG1 (antibody, V domains shown)
VH: EVQLVQSGAEVKKPGESLKISCQSSGYRFTIYWIGWVRQMPGKGLEWMGIIWPGDSDTRYSPSFQGQVTISADKSISTAYLQWSSLKASDTAMYYCVRGIGRYSNWFLDYWGQGTLVTVSS
VL: AIQLTQSPSSLSASVGDRVTITCRASQGFSSALAWYQQKPGKAPKLLIYDASSLESGVPSRFSGSGSGTDFTLTISSLQPEDFATYYCQQFNSYPLTFGGGTKVEIK
notes: rest human IgG1 constant region; IgG1; VH germline HV5-51, VL germline KV1-13; also called Class II Bin 1 mAb; source: Expi293, transiently transfected with VH and VL plasmids, purified (Protein A)
B3: 857-2, recombinant human monoclonal IgG1 (antibody, V domains shown)
VH: EVQLVQSGEEVKKPGESLKISCKGSGYKFSSYWIGWVRQMPGKGLEWMGIIFPGDSDKRYSPSFQGQVTISADKSISTVYLQWSSLKASDTAMYYCARHITTHTYRGFFDFWGQGTLVTVSS
VL: AIQLTQSPSSLSASVGDRVTITCRASQDISSALAWYQQKPGKAPKLLIYDVSSLESGVPSRFSGSGSGTDFTLTISSLQPEDFATYYCQQFNGYPHRLTFGGGTKVEIK
notes: rest human IgG1 constant region; IgG1; VH germline HV5-51, VL germline KV1-13; also called mAb 857-2; Class I Bin 1 mAb; source: Expi293, transiently transfected with VH and VL plasmids, purified (Protein A)
B4: 227-1, recombinant human monoclonal IgG1 (antibody, V domains shown)
VH: EVQLVQSGAEVKMPGESLKISCEVSGYSFTSYWIGWVRQMPGKGLEWMGIIYPGDSDTRYSPSFQGQVTISADKSISTAYLQWSSLKASDTAMYYCTRSISRSGPGFSLSWFFDYWGQGTLVTVSS
VL: B2 VL with F29I, S31N, S56R, S67F, T85I, S93G, Y94F, L96N, G100Q, K103R
notes: rest human IgG1 constant region; IgG1; VH germline HV5-51, VL germline KV1-13; also called Class III Bin 1 mAb; source: Expi293, transiently transfected with VH and VL plasmids, purified (Protein A)

Assays:
[1] = biological target: T1, OspA serotype 3 (B. garinii PBr allele) on B. burgdorferi HB19-R1 reporter strain (Borreliella garinii PBr allele, in B. …, UniProt B8F1J0, strain); experiment: flow cytometry on cells; live B. burgdorferi HB19-R1 reporter strains expressing OspA ST1-7 probed with 10 µg/ml mAb, then Alexa 647-labeled goat anti-human IgG; settings: one partner purified
T1 construct: OspA serotype 3, allele of B. garinii PBr; also called OspAST3; OspA ST3; source: expressed from a reporter plasmid in B. burgdorferi HB19-R1, on live cells

[2] = biological target: T2, OspA serotype 2 (B. afzelii PKo allele) on B. burgdorferi HB19-R1 reporter strain (Borreliella afzelii PKo allele, in B. …, UniProt P0A3N7); experiment: as above; settings: one partner purified
T2 construct: OspA serotype 2, allele of B. afzelii PKo; also called OspAST2; OspA ST2; source: expressed from a reporter plasmid in B. burgdorferi HB19-R1, on live cells
T2 sequence (P0A3N7 17-273): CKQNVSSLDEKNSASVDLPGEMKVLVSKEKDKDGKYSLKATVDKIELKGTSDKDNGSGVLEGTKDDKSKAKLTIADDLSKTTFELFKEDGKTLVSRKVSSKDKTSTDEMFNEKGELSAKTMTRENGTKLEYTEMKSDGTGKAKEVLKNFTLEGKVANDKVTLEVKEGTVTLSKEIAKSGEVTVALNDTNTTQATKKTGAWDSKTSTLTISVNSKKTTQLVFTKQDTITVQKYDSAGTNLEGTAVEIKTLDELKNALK

[3] = biological target: T3, OspA serotype 4 (B. bavariensis PBi allele) on B. burgdorferi HB19-R1 reporter strain (Borreliella bavariensis PBi allele, in …, UniProt Q6LBF1, strain); experiment: as above; settings: one partner purified
T3 construct: OspA serotype 4, allele of B. bavariensis PBi; also called OspAST4; OspA ST4; source: expressed from a reporter plasmid in B. burgdorferi HB19-R1, on live cells

[4] = biological target: T4, Recombinant OspAST1 (residues 18-273) from B. burgdorferi B31 (Borreliella burgdorferi B31, UniProt P0CL66); experiment: BLI; Octet RED96e; mAb captured on AHC sensors, three-fold dilution series of OspA (21.58 nM to 0.089 nM); PBS, 0.1% BSA, 0.01% Tween20; global 1:1 model; settings: both partners purified
T4 construct: Outer surface protein A (OspA) serotype 1, B. burgdorferi B31, residues 18 to 273; Used for the crystal structures; also called OspA (18-273); outer surface protein A serotype 1; not shown: His10, N-terminal, cleaved; SUMO, N-terminal, cleaved

[5] = biological target: T5, Recombinant OspA serotype 1 (provided by Moderna) (Borreliella burgdorferi, strain not …, UniProt P0CL66); experiment: microsphere immunoassay (MIA); recombinant OspA ST1-7 coupled to Magplex-C microspheres; serial dilutions of mAb in PBS, 2% BSA, pH 7.4, 1 h at room temperature; PE goat anti-human IgG Fc; settings: both partners purified
T5 construct: OspA serotype 1; also called recombinant OspA ST1; ST 1; source: E. coli, purified; provided by Dr. Meredith Finn (Moderna)
T5 sequence (P0CL66 17-273): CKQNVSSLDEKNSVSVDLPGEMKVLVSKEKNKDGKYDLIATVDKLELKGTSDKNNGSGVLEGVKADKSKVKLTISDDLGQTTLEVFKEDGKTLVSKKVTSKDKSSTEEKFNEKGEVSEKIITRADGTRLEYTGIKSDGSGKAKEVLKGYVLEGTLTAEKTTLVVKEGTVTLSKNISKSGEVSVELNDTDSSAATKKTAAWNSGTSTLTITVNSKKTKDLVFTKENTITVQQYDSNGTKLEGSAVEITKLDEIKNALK

[6] = biological target: T6, Native OspA serotype 3 on B. garinii PBr cells (Borreliella garinii PBr, UniProt B8F1J0, strain); experiment: flow cytometry on cells; native Bbsl strains (primary isolates, ST1-7) probed with mAb; settings: one partner purified
T6 construct: OspA serotype 3 of B. garinii PBr, native on the bacterial surface; also called native OspA ST3; source: endogenous, B. garinii PBr cells

Row | Binder | MFI [1] | MFI [2] | MFI [3] | Kd [4] | binding result [5] | binding result [1] | binding result [6]
1 | B1 | > 4000 | > 4000 | > 4000 | 0.52 nM | binds |  | 
2 | B2 |  |  |  | 0.35 nM |  | binds | 
3 | B3 | > 4000 | > 4000 | > 4000 | 0.3 nM |  |  | binds
4 | B4 |  |  |  | 1.7 nM |  |  | 
